Assay results: paper PMC11253607, “A conserved inhibitory interdomain interaction regulates DNA-binding activities of hybrid two-component systems in Bacteroides” (mBio, 2024)

Legend:
Test in all cases: Phos-tag gel autophosphorylation, initial rates, Michaelis-Menten fit
Format in all cases: biochemical, Bacteroides thetaiotaomicron
Conditions in all cases: phospho-donor, 50 mM Tris pH 7.5, 100 mM NaCl, 5 mM BME, 5 mM MgSO4, 5 µM protein
NP(=O)(O)O [1] = tested on: NP(=O)(O)O
Source text: Phos-tag gel autophosphorylation, initial rates, Michaelis-Menten fit on BT3334-REC | RECs have higher kcat and lower Km values than RRs

NP(=O)(O)O [2] = tested on: NP(=O)(O)O; remark: listed apart in the source
Source text: Phos-tag gel autophosphorylation, initial rates, Michaelis-Menten fit on BT3334-RR | RECs have higher kcat and lower Km values than RRs

NP(=O)(O)O [3] = tested on: NP(=O)(O)O; remark: listed apart in the source
Source text: Phos-tag gel autophosphorylation, initial rates, Michaelis-Menten fit on BT4124-REC | RECs have higher kcat and lower Km values than RRs

NP(=O)(O)O [4] = tested on: NP(=O)(O)O; remark: listed apart in the source
NP(=O)(O)O [5] = tested on: NP(=O)(O)O; remark: listed apart in the source
Source text: Phos-tag gel autophosphorylation, initial rates, Michaelis-Menten fit on BT4124-RR | RECs have higher kcat and lower Km values than RRs

NP(=O)(O)O [6] = tested on: NP(=O)(O)O; remark: listed apart in the source
Source text: Phos-tag gel autophosphorylation, initial rates, Michaelis-Menten fit on BT4663-REC | RECs have higher kcat and lower Km values than RRs

NP(=O)(O)O [7] = tested on: NP(=O)(O)O; remark: listed apart in the source
Source text: Phos-tag gel autophosphorylation, initial rates, Michaelis-Menten fit on BT4663-RR | RECs have higher kcat and lower Km values than RRs

Q: What does the source list for “BT3334-REC (Bacteroides thetaiotaomicron VPI-5482)”?
A: Km (NP(=O)(O)O [1]): 4.5 ± 0.8 mM; kcat (NP(=O)(O)O [1]): 0.02 ± 0.0017 s⁻¹

Q: What does the source list for “BT3334-RR (Bacteroides thetaiotaomicron VPI-5482)”?
A: Km (NP(=O)(O)O [2]): 7.8 ± 2.4 mM; kcat (NP(=O)(O)O [2]): 0.0095 ± 0.00083 s⁻¹

Q: Which Km (NP(=O)(O)O [3]) does the source give for “BT4124-REC (Bacteroides thetaiotaomicron VPI-5482)” here?
A: 10 ± 1 mM

Q: What about the kcat (NP(=O)(O)O [3]) of the same substance?
A: 0.0233 ± 0.0017 s⁻¹

Q: “BT4124-REC (Bacteroides thetaiotaomicron VPI-5482; C1262A/H1263D)” was tested. Which Km (NP(=O)(O)O [4]) did it give?
A: 13 ± 2 mM

Q: What about the kcat (NP(=O)(O)O [4]) of the same substance?
A: 0.0267 ± 0.0017 s⁻¹

Q: Which Km (NP(=O)(O)O [5]) does the source give for “BT4124-RR (Bacteroides thetaiotaomicron VPI-5482)” here?
A: 17 ± 2 mM

Q: And the kcat (NP(=O)(O)O [5])?
A: 0.00833 ± 0.0005 s⁻¹

Q: What does the source list for “BT4124-RR (Bacteroides thetaiotaomicron VPI-5482; C1262A/H1263D)”?
A: Km (NP(=O)(O)O [4]): 8.5 ± 1.5 mM; kcat (NP(=O)(O)O [4]): 0.02 ± 0.0017 s⁻¹

Q: What does the source list for “BT4124-RR (Bacteroides thetaiotaomicron VPI-5482; C1262A/H1263G)”?
A: Km (NP(=O)(O)O [4]): 13 ± 3 mM; kcat (NP(=O)(O)O [4]): 0.0183 ± 0.0017 s⁻¹

Q: How did the Km (NP(=O)(O)O [6]) turn out when “BT4663-REC (Bacteroides thetaiotaomicron VPI-5482)” was run?
A: 14 ± 4 mM

Q: What about the kcat (NP(=O)(O)O [6]) of the same substance?
A: 0.0135 ± 0.0017 s⁻¹

Q: “BT4663-RR (Bacteroides thetaiotaomicron VPI-5482)” was tested. Which Km (NP(=O)(O)O [7]) did it give?
A: 33 ± 6 mM

Q: And the kcat (NP(=O)(O)O [7])?
A: 0.0035 ± 0.00033 s⁻¹
